From the supplement of paper PMC9732359
± gives the uncertainty stated by the source.

Assay: protein stability index of a GFP-peptide fusion (yeast GPS) (PSI 1-4); higher = more stable; sorted into four equal gates, so the index is relative within each strain
Details: doa10∆
In short: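 Tiled yeast protein peptides of 17 residues were each joined downstream of GFP, on plasmids that also express Cherry. The pooled library was maintained in yeast, and mid-log cultures in leucine-free medium were sorted into four equal gates on the GFP/Cherry ratio. Plasmids from every gate were amplified by PCR and sequenced on Illumina, with barcodes linking reads to strains. The protein stability index of a peptide is its gate-number-weighted read frequency summed over the gates.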

Sequence | protein stability index
QSEHLEAVVDQDVQRTC [FAS1] | 3.47 ± 0.25

Same assay, conditions: pdr5∆

Sequence | protein stability index
PSQGVHYKVPTDTSTTA [MED6] | 2.84 ± 0.046
PSSEKPNIRTMSGTTKR [SSN2] | 2.45 ± 0.27
PSSQSQNDTPMFKLGNF [YLR018C/POM34] | 2.8 ± 0.046
PSTGFKFSLPFEQKGSQ [YLR335W/NUP2] | 2.94 ± 0.088
PSYTHVLISKLSCEKIT [RRI1] | 1.99 ± 0.043
PTDDKTLKPTFSFTEPA [YOR098C/NUP1] | 2.65 ± 0.089
PTHYKIPAWFLNRQNDI [RPS18A] | 2.19 ± 0.062
PTIRSNAVLGLGDMAVC [YCS4] | 1.64 ± 0.069
PTQTVAELDLMSGILHC [RPN6] | 3.07 ± 0.054
PTSDEPVPESAGKADTS [SRB4] | 3.07 ± 0.092
PTTNEPAKPALSFGTAT [YJL041W/NSP1] | 3.08 ± 0.063
PVGRELDPISLILIPGE [RPN13] | 2.56 ± 0.05
PVIGVFQKFLTGHPKGA [FAS2] | 2.79 ± 0.16
PVLKKKAAFLGSEVRLR [COR1] | 3.16 ± 0.071
PVNSADGKEDVEKGTPL [SME1] | 3.25 ± 0.21
PVQIVKRITQITIEPGV [RPS20] | 1.79 ± 0.25
PVQSKFGRKKRKGGPAT [RPT2] | 3.11 ± 0.14
PWCVKPEYLAMYGLTME [ITC1] | 3.03 ± 0.071
PWYNNPVSCIIQNDEEY [PRP8] | 2.05 ± 0.094
PYAIIKGKARLGTLVNQ [RPL8B] | 1.99 ± 0.06
PYLLETYANVLIPCKYL [RPN7] | 1.43 ± 0.063
PYSKNAVEQLAGCKIDN [YDL088C/ASM4] | 2.6 ± 0.089
QAAGGLSIRLTNQLKSL [RPN8] | 2.57 ± 0.088
QALIHGLNRHYYSLNID [RPN11] | 2.4 ± 0.1
QANPTEESISKFPDMGS [RPB5] | 3.26 ± 0.076
QAYEEIISSNENALIEL [YIL149C/MLP2] | 3.07 ± 0.061
QAYQFLNTFGSKICLSH [ITC1] | 1.33 ± 0.049

Sequence | protein stability index
QDDDFPLDDAGTIGWDL [MCD1] | 3.25 ± 0.081
QDVLQMLGRAGRPRYDT [BRR2] | 2.56 ± 0.23
QEAIQQNRRLAFEELEG [PRP8] | 2.62 ± 0.28
QEDFEVVEEFTPVVLAT [RPS5] | 2.45 ± 0.059
QEGKISSVYRLKFAVQV [RPL26A] | 3.25 ± 0.11
QEGLITTTMLQLFSTFD [SSN2] | 2.57 ± 0.072
QELQIKRDVLDDLYRKL [CSE2] | 2.19 ± 0.15
QELRKKVNPNIMNMIEN [SMC2] | 2.72 ± 0.11
QESLLSRTFDKYSKLVD [SRP72] | 2.9 ± 0.068
QETQHGNITRGLAVGLA [RPN2] | 2.55 ± 0.096
QFAPAFLNTPNNNINEN [SSN2] | 2.98 ± 0.063
QFASPVRWIETQDVFLK [FAS2] | 2.06 ± 0.022
QFEIPISDDDDSALRYS [POP4] | 2.75 ± 0.096
QFISSRQFEVKQLQLAM [POP1] | 2.45 ± 0.051
QFNAITGLNGSGKSNIL [SMC2] | 2.99 ± 0.13
QFNATINPESREIVMPA [ITC1] | 1.86 ± 0.17
QFPEIAYPGKLICPQYG [CSL4] | 2.11 ± 0.059
QGIFKNSSNYFGELQFA [AAR2] | 2.6 ± 0.1
QGITRNVVNYLSINKNF [RPC17] | 1.62 ± 0.051
QHGFEVQVGPMKVFVTK [RPB7] | 2.41 ± 0.079
QHIYPSSTPGVANYSAM [GAL11] | 2.7 ± 0.12
QHLQQLKMQQQQQQQQQ [GAL11] | 2.23 ± 0.059
QHLRNEHGMNAPSVPEF [SNF2] | 3.56 ± 0.13
QHQSLSRSSSKNVNIED [ESC2] | 2.69 ± 0.11
QIEKKEIKKMIITNINA [YCG1] | 2.75 ± 0.11
QIEKKKICRGRMNTIIT [SIR4] | 3.43 ± 0.14
QIIQRDKINKYSLIRET [SNF5] | 1.3 ± 0.13

Sequence | protein stability index
QIISGNRVPDGFQDRSL [RPO31] | 3.13 ± 0.13
QINNVHLIPNEIKGASE [RPN4] | 2.75 ± 0.059
QINPTRETNDDIWRVAG [SNF2] | 2.26 ± 0.066
QKIMILQRTILNRIINH [RGR1] | 1.83 ± 0.067
QKKVLIDGPKAGVPRQA [RPL14A] | 3.35 ± 0.084
QKRQLHDISKTETSNED [SNU114] | 2.97 ± 0.045
QKSFEQLNSRAVAVVVD [RPN11] | 1.72 ± 0.09
QKVLNAHRQRAMEARSS [SMC4] | 2.36 ± 0.15
QLAGKSGEDTNVGLPIL [YOR098C/NUP1] | 3.32 ± 0.084
QLDEFKNKYLKDVLAQT [SWP82] | 2.52 ± 0.15
QLDSYLVNGFSQSQQKL [MED2] | 2.35 ± 0.063
QLEDESSRLEFVKGISR [YML103C/NUP188] | 3.2 ± 0.11
QLFNWCLMRSLHKLELK [DSN1] | 1.26 ± 0.059
QLFSTFDRLNGNDTISK [SSN2] | 3.02 ± 0.087
QLIFRQQTGLVDAITRC [SNU114] | 2.69 ± 0.058
QLKYDTSVQEKELMLQS [YIL149C/MLP2] | 2.88 ± 0.17
QLLDIAEFKKENLADLD [LIN1] | 1.55 ± 0.097
QLNEKLVGRLRKCETQK [YCS4] | 1.44 ± 0.062
QLVYKRGFGKINKQRVP [RPL7A] | 2.4 ± 0.079
QMDQQLQYTALTGSPNN [ARP7] | 3.36 ± 0.096
QMTQIMDIMEDFLRYIN [SNF2] | 1.33 ± 0.034
QNAADLQQICRVRNKDI [RPL9A] | 3.3 ± 0.045
QNDELTMGMRALLKLSV [DIS3] | 2.49 ± 0.078
QNFAEFMTKLLEVANDL [IRR1] | 2.29 ± 0.097
QNHNSKSTDNSAIRQVF [IRR1] | 2.8 ± 0.037
QNIETRQLANLIPFIVK [NUT1] | 1.58 ± 0.041
QNIMTLPDGKNGNLEEE [MED6] | 3.23 ± 0.11

Sequence | protein stability index
QNKLFYITNADDSTKFQ [SIR3] | 3.02 ± 0.084
QNNEQNPIDPFNIIREF [YDL116W/NUP84] | 3.15 ± 0.051
QNRRLAFEELEGSWDRG [PRP8] | 3.31 ± 0.17
QPAQPRESRIVSTEGNV [RPL21A] | 2.83 ± 0.074
QPMISPDNSIFGDTKSE [SWI3] | 3.38 ± 0.087
QPNARALERYDEAEGRF [SMC1] | 3.58 ± 0.1
QPQQQLGDMENNLEKYP [RTT102] | 3.15 ± 0.12
QPTPRSASNTAKSTPNT [GAL11] | 2.93 ± 0.05
QQKQQQQQQQHQQQQQQ [SNF5] | 2.8 ± 0.03
QQLRRALPDVVVKGLPD [RPO31] | 2.31 ± 0.057
QQPNPLQDLISVYGLDD [ROX3] | 1.76 ± 0.061
QQQQAAALANANNNINS [SWI1] | 2.3 ± 0.053
QQQQQQQQQQQQQGQIP [SNF5] | 2.79 ± 0.023
QQQTNALNGIDINTVNT [GRR1] | 3.25 ± 0.055
QQRFQALQQQQQQQQNQ [SWI1] | 2.07 ± 0.046
QQTGLVDAITRCYQPFE [SNU114] | 2.76 ± 0.056
QRDLGLYVVGLFDTYHA [RRP6] | 2.53 ± 0.043
QRDLYKRKEELVSTLTT [SMC2] | 1.91 ± 0.063
QRFVGHKSDVMSVDIDK [ASC1] | 3.06 ± 0.061
QRIAKNDPEYMDTSDDA [DLS1] | 3.15 ± 0.12
QRILEVLGTPDQKIWPY [SSN3] | 1.45 ± 0.057
QRTATLCLEKLMCLSSK [YCS4] | 2.29 ± 0.075
QRTLSKSFYSTATGAAS [CYT1] | 2.39 ± 0.054
QRVFKPVDITMMENYQN [PRP8] | 2.27 ± 0.074
